{"source": "paper PMC13108567", "about": "“Targeting PD-1^+ T cells with chimeric antigen receptors to reduce the HIV reservoir” (Science Advances, 2026)", "target": "T1, PD-1 biotinylated dimer (Homo sapiens, UniProt Q15116)", "T1 construct": "also called PD-1 dimer protein", "T1 sequence (Q15116 25-288)": "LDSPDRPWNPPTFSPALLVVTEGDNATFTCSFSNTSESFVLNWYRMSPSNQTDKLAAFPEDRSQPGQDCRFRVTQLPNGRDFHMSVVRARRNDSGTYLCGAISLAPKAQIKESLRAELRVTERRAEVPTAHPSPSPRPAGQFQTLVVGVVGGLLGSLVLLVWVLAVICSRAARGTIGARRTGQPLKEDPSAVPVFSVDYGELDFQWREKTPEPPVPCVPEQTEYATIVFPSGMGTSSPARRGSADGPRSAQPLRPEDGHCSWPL", "test": "BLI", "settings": "both partners purified", "data": [{"binder": "scFv-His of anti-PD-1 clone 135c139d6 (scFv, V domains shown, source: purified) VH: EVQLVQSGAEVKKPGESLKISCKGSGYSFTNFYIHWVRQAPGQRLEWMGSIYPNYGDTAYNQKFKDRFVFSLDTSVSTAYLQISSLKAEDTAVYYCARGYSYAMDYWGQGTTVTVSS VL: DIQMTQSPSSVSASVGDRVTITCSASQGISGDLNWYQQKPGKAPKLLIYHTSSLHSGVPSRFSGSGSGTDFTLTISSLQPEDFATYYCQYYSKDLLTFGGGTKLEIK", "values": [{"measurement": "KD, fold lower than that of the scFv of clone A35", "result": 4, "unit": "times"}]}]}
